Test results: publication PMC4880191, “SUMO-Modification of the La Protein Facilitates Binding to mRNA In Vitro and in Cells”

T1: La (LARP3), native (human, UniProt P05455 1-408)
T1 sequence: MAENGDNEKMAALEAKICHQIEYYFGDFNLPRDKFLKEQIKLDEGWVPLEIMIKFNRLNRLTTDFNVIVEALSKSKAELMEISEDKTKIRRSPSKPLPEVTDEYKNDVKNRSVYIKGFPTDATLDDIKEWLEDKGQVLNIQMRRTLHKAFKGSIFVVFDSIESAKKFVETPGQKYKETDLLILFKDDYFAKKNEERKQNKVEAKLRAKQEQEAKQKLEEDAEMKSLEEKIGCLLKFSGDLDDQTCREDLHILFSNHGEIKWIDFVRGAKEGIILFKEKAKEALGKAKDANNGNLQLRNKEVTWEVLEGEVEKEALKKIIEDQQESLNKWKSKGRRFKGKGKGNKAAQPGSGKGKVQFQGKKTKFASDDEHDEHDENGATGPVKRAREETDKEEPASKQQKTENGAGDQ

B1: L37 TOP RNA (ssRNA)
RNA: UUCCGGUCUCUUUGGCCUCGCCGGUAGAAGCAAGAUG
B2: L22 TOP RNA (ssRNA)
RNA: CUCCUCUGCCGCCAUGGCUCCUGUGAAAAAGCUUGUG

Target: T1, La (LARP3), native
Assay: EMSA; most RNA (22 nM) bound at 200-400 nM La; titration 6-700 nM; L37/L22 EMSA: 1x binding buffer (from 2x: 3 mM MgCl2, 300 mM NaCl, 1 mM EDTA, 0.1% Nonidet P-40), i.e. 1.5 mM MgCl2, 150 mM NaCl, 0.5 mM EDTA, 0.05% NP-40; pH not stated; 22 nM RNA, 40 ul, 10 min at room temperature; native 10% PAGE in TBE. CCND1 EMSA as in ref 42
Settings: protein: recombinant; tags: His6; label: 3'-Cy3; weak secondary structure

| Binder | binding result |
| --- | --- |
| B1 | binds |
| B2 | binds |
